Common to all, as to test: enzyme inhibition assay
Test [1] has as its target Recombinant human cathepsin L (human) (UniProt P07711).
Test [2] addresses Recombinant human cathepsin S (human) (UniProt P25774).
The target is the same in test [3]. The source holds these as a separate data set.

Read-outs that look alike come from different tables or passages of the source.

Chain of UniProt P25774 (P25774 17-331): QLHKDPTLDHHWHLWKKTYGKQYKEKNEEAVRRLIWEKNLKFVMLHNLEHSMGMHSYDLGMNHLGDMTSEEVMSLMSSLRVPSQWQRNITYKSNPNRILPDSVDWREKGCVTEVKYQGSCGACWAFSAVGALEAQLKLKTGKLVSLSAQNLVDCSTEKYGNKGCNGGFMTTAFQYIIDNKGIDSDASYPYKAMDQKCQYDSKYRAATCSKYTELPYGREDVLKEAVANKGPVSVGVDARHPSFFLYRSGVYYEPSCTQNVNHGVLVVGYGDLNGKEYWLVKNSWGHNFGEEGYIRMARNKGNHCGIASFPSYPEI
Chain of UniProt P07711 (P07711 18-333): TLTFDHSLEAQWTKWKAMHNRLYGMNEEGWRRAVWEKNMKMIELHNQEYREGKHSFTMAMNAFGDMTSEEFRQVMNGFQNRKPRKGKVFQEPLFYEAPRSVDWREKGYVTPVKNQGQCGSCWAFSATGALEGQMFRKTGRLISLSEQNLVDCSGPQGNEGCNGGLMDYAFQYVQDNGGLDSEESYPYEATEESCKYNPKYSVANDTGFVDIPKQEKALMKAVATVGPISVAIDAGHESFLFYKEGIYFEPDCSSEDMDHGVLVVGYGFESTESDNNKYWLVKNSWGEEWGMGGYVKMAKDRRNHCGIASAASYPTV

On to “Her-HC-CTSSpp IgG (from UniProt P25774 17-113) (antibody)”, for which the figures for the Ki in test [1] and in test [2] were 49.3 nM and 6.03 nM, respectively.

“Syn-LC-CTSSpp Fab (from UniProt P25774 17-113)”: the Ki (commonly the equilibrium dissociation constant of an inhibitor or competing ligand from its target) in test [3] stood at 2.21 nM; in test [1], 24.5 nM; in test [2] it was 2.12 nM.

The values are drawn from PMC10872949.
